# In US20040043420A1, “Method of identifying conformation-sensitive binding peptides and uses thereof” (priority 2003, published 2004):
# B1: M4D1 (peptide)
# chain: MKLLSSIEQACDICRLKKLKCSKEKPKCAKCLKNNWECRYSPKTKRSPLTRAHLTEVESRLERLEQLFLLIFPREDLDMILKMDSLQDIKALLTGLFVQDNVNKDAVTDRLASVETDMPLTLRQHRISATSSSEESSNKGQRQLTVSEFRFPFHEMVREWESMGLERVRYAEP
# B2: M7B1 (peptide)
# chain: MKLLSSIEQACDICRLKKLKCSKEKPKCAKCLKNNWECRYSPKTKRSPLTRAHLTEVESRLERLEQLFLLIFPREDLDMILKMDSLQDIKALLTGLFVQDNVNKDAVTDRLASVETDMPLTLRQHRISATSSSEESSNKGQRQLTVSEFVGWFTGMAACSYAPDLDLQPS
# Tests used:
# ER β [1] = biological target: ER β (Homo sapiens, UniProt Q92731); experiment: Phage ELISA fingerprint: binding of peptide phage to immobilized ER β in the presence of modulators (Table 14B)
# ER α [2] = biological target: T1, ER α (UniProt P03372 1-595, limits assumed); experiment: peptide probe binding to ERα, ICI 182,780
# T1 construct: also called estrogen receptor α; ERα-ERE
# T1 sequence (looked up): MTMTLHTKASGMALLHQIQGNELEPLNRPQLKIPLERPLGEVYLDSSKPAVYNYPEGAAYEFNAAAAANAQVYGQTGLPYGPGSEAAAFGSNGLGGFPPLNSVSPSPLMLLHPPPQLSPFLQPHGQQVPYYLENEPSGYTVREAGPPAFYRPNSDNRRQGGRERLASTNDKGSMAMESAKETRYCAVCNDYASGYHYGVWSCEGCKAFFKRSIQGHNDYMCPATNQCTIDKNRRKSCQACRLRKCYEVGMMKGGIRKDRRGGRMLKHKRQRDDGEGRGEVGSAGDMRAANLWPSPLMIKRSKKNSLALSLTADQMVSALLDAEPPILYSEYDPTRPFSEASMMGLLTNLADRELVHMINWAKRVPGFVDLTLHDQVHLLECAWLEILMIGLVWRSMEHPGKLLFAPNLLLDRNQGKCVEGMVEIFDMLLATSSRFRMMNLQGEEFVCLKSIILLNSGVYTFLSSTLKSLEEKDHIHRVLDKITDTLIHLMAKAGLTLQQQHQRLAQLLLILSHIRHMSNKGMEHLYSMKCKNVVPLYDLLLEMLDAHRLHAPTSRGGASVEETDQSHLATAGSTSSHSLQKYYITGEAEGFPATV
# ER β [3] = biological target: T2, ER β (UniProt Q92731 1-530, limits assumed); experiment: peptide probe binding to ERβ, 17β-Estradiol
# T2 construct: In vitro; also called estrogen receptor β; ERβ-ERE
# ER β [4] = biological target: T2, ER β; experiment: peptide probe binding to ERβ, Clomiphene
# ER β [5] = biological target: T2, ER β; experiment: peptide probe binding to ERβ, Estriol
# ER β [6] = biological target: T2, ER β; experiment: peptide probe binding to ERβ, Raloxifene
# ER β [7] = biological target: T2, ER β; experiment: peptide probe binding to ERβ, GW 7604
# ER α [8] = biological target: T1, ER α; experiment: peptide probe binding to ERα, Diethylstilbesterol
# ER α [9] = biological target: T1, ER α; experiment: peptide probe binding to ERα, 4-OH Tamoxifen
# ER α [10] = biological target: T1, ER α; experiment: phage isolated on ERα-ERE; Tamoxifen
# ER β [11] = biological target: T2, ER β; experiment: phage ELISA, ICI 182,780 1 µM
# ER α [12] = biological target: T1, ER α; experiment: phage isolated on ERα-ERE; Raloxifen
# [13] = biological target: T3, Gal4 transcriptional activation domain (AD) fused in frame with AR (yeast, UniProt P10275 1-920, limits assumed); experiment: cell-based or functional assay
# T3 sequence (looked up): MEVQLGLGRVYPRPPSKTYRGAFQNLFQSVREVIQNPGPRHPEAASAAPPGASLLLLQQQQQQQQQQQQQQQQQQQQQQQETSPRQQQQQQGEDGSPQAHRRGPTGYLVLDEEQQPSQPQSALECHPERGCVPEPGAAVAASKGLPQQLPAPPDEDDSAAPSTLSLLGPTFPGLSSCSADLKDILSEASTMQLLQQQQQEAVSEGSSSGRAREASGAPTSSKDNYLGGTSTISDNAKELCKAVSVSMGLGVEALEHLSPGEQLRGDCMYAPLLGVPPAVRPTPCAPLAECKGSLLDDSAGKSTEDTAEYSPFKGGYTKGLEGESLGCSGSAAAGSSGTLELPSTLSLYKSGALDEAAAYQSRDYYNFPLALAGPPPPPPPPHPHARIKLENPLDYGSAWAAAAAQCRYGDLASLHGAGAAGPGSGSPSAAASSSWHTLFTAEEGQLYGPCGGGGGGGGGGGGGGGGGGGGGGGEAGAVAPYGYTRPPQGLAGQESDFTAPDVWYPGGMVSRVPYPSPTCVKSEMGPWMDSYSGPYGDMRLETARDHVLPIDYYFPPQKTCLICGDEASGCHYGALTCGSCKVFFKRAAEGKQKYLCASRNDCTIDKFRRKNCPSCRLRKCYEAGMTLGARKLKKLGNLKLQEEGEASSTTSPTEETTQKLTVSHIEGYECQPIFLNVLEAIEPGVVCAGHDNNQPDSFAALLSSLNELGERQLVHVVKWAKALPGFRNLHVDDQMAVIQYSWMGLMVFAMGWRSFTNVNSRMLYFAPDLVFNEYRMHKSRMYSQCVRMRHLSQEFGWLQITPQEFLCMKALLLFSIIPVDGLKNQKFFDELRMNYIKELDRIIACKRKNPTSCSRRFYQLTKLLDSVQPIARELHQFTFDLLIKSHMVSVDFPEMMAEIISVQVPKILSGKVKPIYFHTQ
# [14] = biological target: T3, Gal4 transcriptional activation domain …; experiment: cell-based or functional assay; remark: listed apart in the source
# ER α, P03372 [15] = biological target: T4, ER α, P03372; experiment: peptide probe binding to ERα, 17α-Estradiol
# T4 chain: T1 sequence (looked up)
# ER α, P03372 [16] = biological target: T4, ER α, P03372; experiment: peptide probe binding to ERα, 17β-Estradiol
# ER α, P03372 [17] = biological target: T4, ER α, P03372; experiment: peptide probe binding to ERα, Nafoxidine
# ER α, P03372 [18] = biological target: T4, ER α, P03372; experiment: peptide probe binding to ERα, GW7604
# ER α, P03372 [19] = biological target: T4, ER α, P03372; experiment: peptide probe binding to ERα, Raloxifene
# ER α, P03372 [20] = biological target: T4, ER α, P03372; experiment: peptide probe binding to ERα, Buffer
# ER α, P03372 [21] = biological target: T4, ER α, P03372; experiment: peptide probe binding to ERα, Diethylstilbesterol
# ER α, P03372 [22] = biological target: T4, ER α, P03372; experiment: peptide probe binding to ERα, 4-OH Tamoxifen
# ER α, P03372 [23] = biological target: T4, ER α, P03372; experiment: peptide probe binding to ERα, Estriol
# ER α, P03372 [24] = biological target: T4, ER α, P03372; experiment: peptide probe binding to ERα, Clomiphene
# ER α, P03372 [25] = biological target: T4, ER α, P03372; experiment: peptide probe binding to ERα, ICI 182,780
# ER β (Homo sapiens, UniProt Q92731), sequence (Q92731 whole entry, species assumed): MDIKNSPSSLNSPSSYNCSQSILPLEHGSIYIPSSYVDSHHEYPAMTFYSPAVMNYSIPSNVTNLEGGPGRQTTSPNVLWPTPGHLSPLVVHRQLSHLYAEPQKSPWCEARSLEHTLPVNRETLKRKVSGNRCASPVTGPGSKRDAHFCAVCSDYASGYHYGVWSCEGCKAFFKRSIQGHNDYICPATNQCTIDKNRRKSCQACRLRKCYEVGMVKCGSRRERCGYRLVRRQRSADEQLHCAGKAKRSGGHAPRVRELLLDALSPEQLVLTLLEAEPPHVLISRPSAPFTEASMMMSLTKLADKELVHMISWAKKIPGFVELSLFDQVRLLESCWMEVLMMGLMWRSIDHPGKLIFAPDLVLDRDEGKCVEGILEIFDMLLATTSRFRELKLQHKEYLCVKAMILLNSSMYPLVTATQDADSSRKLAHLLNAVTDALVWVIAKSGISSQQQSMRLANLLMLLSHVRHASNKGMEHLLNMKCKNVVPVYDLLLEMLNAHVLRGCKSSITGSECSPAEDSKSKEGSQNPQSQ
# T2 sequence (Q92731 whole entry): as the sequence (Q92731 whole entry, species assumed) above
molecule,measurement,setting,value
SSNHQSSRLIELLSR [#4 ER./E2],"Class Specific Fingerprint on ERβ: phage binding, 4-OH Tamoxifen present",ER β [1]; 4-OH tamoxifen 1 μM,0
same,"Class Specific Fingerprint on ERβ: phage binding, ICI 182,780 present","ER β [1]; ICI 182,780 1 μM",0
same,"Class Specific Fingerprint on ERβ: phage binding, Clomiphene present",ER β [1]; clomiphene 10 μM,0
same,"Class Specific Fingerprint on ERβ: phage binding, Raloxifene present",ER β [1]; raloxifene 1 μM,0
SRLPPSVFSMCGSEVCLSR [9Tβ],"Class Specific Fingerprint on ERβ: phage binding, Nafoxidine present",ER β [1]; nafoxidine 10 μM,5
SSWDMHQFFWEGVSR (also called AB3) [α/β III],Equiv.,ER α [2],-100%
same,Equiv.,ER β [3],-71%
same,Equiv.,ER β [4],34%
same,Equiv.,ER β [5],-57%
same,Equiv.,ER β [6],77%
same,Equiv.,ER β [7],-86%
same,Equiv.,ER α [8],-53%
same,Equiv.,ER α [9],100%
SRTLQLDWGTLYSR [T3-1],binding result,ER α [10],binds
SREWEDGFGGRWLSR (also called β I; B1) [4T-β],Equiv.,ER β [4],-62%
same,Equiv.,ER β [6],-53%
same,phage ELISA grade,ER β [11],0
SSLNMVVDTPWCGKWVCSR [2R],binding result,ER α [12],binds
SSEACVGRWMLCEQLGVSR (also called β III; B3) [12B-β],Equiv.,ER β [4],-61%
same,Equiv.,ER β [5],77%
same,Equiv.,ER β [6],-71%
B1,"β-galactosidase activity (yeast two-hybrid), CPA",[13],-0.0396
same,"β-galactosidase activity (yeast two-hybrid), DHT",[13],0.395
same,"β-galactosidase activity (yeast two-hybrid), MPA",[13],1.7
same,"β-galactosidase activity (yeast two-hybrid), No Lig",[13],0
same,"β-galactosidase activity (yeast two-hybrid), RU",[13],0.1
same,"β-galactosidase activity (yeast two-hybrid), Test",[13],0.134
same,Fold induction (yeast two-hybrid),[14],> 2 fold
SSLDLSQFPMTASFLRESR (also called β II; B2) [35E-β],phage ELISA grade,ER β [11],0
SSLTSRDFGSWYASR (modifications not checked) [phage 5 (Table 2)],Equiv.,"ER α, P03372 [15]",80%
same,Equiv.,"ER α, P03372 [16]",100%
same,Equiv.,"ER α, P03372 [17]",32%
same,Equiv.,"ER α, P03372 [18]",35%
same,Equiv.,"ER α, P03372 [19]",44%
same,Equiv.,"ER α, P03372 [20]",0%
same,Equiv.,"ER α, P03372 [21]",69%
same,Equiv.,"ER α, P03372 [22]",38%
same,Equiv.,"ER α, P03372 [23]",62%
same,Equiv.,"ER α, P03372 [24]",56%
same,Equiv.,"ER α, P03372 [25]",56%
SRLCFGDWCMLGGVDVLSR [1R],binding result,ER α [12],binds
B2,"β-galactosidase activity (yeast two-hybrid), CPA",[13],1.69
same,"β-galactosidase activity (yeast two-hybrid), DHT",[13],3.93
same,"β-galactosidase activity (yeast two-hybrid), MPA",[13],6.9
same,"β-galactosidase activity (yeast two-hybrid), No Lig",[13],0
same,"β-galactosidase activity (yeast two-hybrid), RU",[13],0.1
same,"β-galactosidase activity (yeast two-hybrid), Test",[13],4.5
same,Fold induction (yeast two-hybrid),[14],> 2 fold
SRVFGVSGGEVVLINGSSR [T3-11],binding result,ER α [10],binds
SRFEIWKPEPGCVSSLENWEPGKRVCSR [T2-10],binding result,ER α [10],binds
